From article PMC10397247

What was measured:
4H3974-bH = molecular target: T1, 4H3974-bH; experiment: two-hybrid library CCNG1;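 further: natural log of median RNA to DNA barcode read ratio; higher means stronger binding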
T1 chain: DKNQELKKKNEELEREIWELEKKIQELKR

4H570-bH = molecular target: T2, 4H570-bH; experiment: two-hybrid library CCNG1;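 further: natural log of median RNA to DNA barcode read ratio; higher means stronger binding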
T2 chain: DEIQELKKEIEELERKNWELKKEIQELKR

4H584-bH = molecular target: T3, 4H584-bH; experiment: two-hybrid library CCNG1;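 further: natural log of median RNA to DNA barcode read ratio; higher means stronger binding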
T3 chain: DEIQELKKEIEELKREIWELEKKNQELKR

4H619-bH = molecular target: T4, 4H619-bH; experiment: two-hybrid library CCNG1;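 further: natural log of median RNA to DNA barcode read ratio; higher means stronger binding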
T4 chain: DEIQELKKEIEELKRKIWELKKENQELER

4H850-bH = molecular target: T5, 4H850-bH; experiment: two-hybrid library CCNG1
T5 chain: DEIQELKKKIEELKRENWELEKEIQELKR

4H906-bH = molecular target: T6, 4H906-bH; experiment: two-hybrid library CCNG1
T6 chain: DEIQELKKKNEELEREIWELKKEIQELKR

4H43-AA = molecular target: T7, 4H43-AA; experiment: two-hybrid library CCmax
T7 chain: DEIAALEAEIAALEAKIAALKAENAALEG

4H451-AA = molecular target: T8, 4H451-AA; experiment: two-hybrid library CCmax; details: mean of both orientations
T8 chain: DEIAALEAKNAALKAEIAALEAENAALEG

4H510-AA = molecular target: T9, 4H510-AA; experiment: two-hybrid library CCmax; details: mean of both orientations
T9 chain: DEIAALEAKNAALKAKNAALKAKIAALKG

4H_APH = molecular target: T10, 4H_APH; experiment: two-hybrid library CCmax; details: mean of both orientations
T10 chain: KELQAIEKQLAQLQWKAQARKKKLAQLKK

4H_BCR = molecular target: T11, 4H_BCR; experiment: two-hybrid library CCmax; details: mean of both orientations
T11 chain: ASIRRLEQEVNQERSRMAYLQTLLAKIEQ

GCN2_T = experiment: two-hybrid library CCmax
O11-AA = molecular target: T12, O11-AA; experiment: two-hybrid library CCmax; details: mean of both orientations
T12 chain: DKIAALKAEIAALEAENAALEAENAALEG

O13-AA = molecular target: T13, O13-AA; experiment: two-hybrid library CCmax; details: mean of both orientations
T13 chain: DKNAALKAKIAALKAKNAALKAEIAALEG

O14-AA = molecular target: T14, O14-AA; experiment: two-hybrid library CCmax; details: mean of both orientations
T14 chain: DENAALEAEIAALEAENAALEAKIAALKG

4H683-bH = molecular target: T15, 4H683-bH; experiment: two-hybrid library CCNG1
T15 chain: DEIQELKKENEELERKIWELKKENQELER

4H754-bH = molecular target: T16, 4H754-bH; experiment: two-hybrid library CCNG1
T16 chain: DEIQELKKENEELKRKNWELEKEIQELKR

4H780-bH = molecular target: T17, 4H780-bH; experiment: two-hybrid library CCNG1
T17 chain: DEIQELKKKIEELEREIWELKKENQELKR

4H797-bH = molecular target: T18, 4H797-bH; experiment: two-hybrid library CCNG1
T18 chain: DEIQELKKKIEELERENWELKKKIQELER

4H855-bH = molecular target: T19, 4H855-bH; experiment: two-hybrid library CCNG1
T19 chain: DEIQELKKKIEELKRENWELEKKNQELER

4H918-bH = molecular target: T20, 4H918-bH; experiment: two-hybrid library CCNG1
T20 chain: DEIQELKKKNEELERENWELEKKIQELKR

4H949-bH = molecular target: T21, 4H949-bH; experiment: two-hybrid library CCNG1
T21 chain: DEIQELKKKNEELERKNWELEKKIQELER

4H953-bH = molecular target: T22, 4H953-bH; experiment: two-hybrid library CCNG1
T22 chain: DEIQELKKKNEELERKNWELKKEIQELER

4H968-bH = molecular target: T23, 4H968-bH; experiment: two-hybrid library CCNG1
T23 chain: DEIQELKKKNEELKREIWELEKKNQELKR

4H3066-AA = molecular target: T24, 4H3066-AA; experiment: two-hybrid library CCmax
T24 chain: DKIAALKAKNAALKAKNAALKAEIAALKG

4H3102-AA = molecular target: T25, 4H3102-AA; experiment: two-hybrid library CCmax; details: mean of both orientations
T25 chain: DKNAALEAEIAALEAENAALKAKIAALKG

4H3121-AA = molecular target: T26, 4H3121-AA; experiment: two-hybrid library CCmax; details: mean of both orientations
T26 chain: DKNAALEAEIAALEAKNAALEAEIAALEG

4H3417-AA = molecular target: T27, 4H3417-AA; experiment: two-hybrid library CCmax; details: mean of both orientations
T27 chain: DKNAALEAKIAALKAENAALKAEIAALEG

4H3446-AA = molecular target: T28, 4H3446-AA; experiment: two-hybrid library CCmax; details: mean of both orientations
T28 chain: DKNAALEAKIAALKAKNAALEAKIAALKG

4H3591-AA = molecular target: T29, 4H3591-AA; experiment: two-hybrid library CCmax; details: mean of both orientations
T29 chain: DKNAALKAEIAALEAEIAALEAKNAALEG

4H3628-AA = molecular target: T30, 4H3628-AA; experiment: two-hybrid library CCmax; details: mean of both orientations
T30 chain: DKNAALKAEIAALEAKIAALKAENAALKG

4H3666-AA = molecular target: T31, 4H3666-AA; experiment: two-hybrid library CCmax; details: mean of both orientations
T31 chain: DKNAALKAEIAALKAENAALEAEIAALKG

4H3709-AA = molecular target: T32, 4H3709-AA; experiment: two-hybrid library CCmax; details: mean of both orientations
T32 chain: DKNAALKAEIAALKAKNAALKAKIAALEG

4H391-AA = molecular target: T33, 4H391-AA; experiment: two-hybrid library CCmax; details: mean of both orientations
T33 chain: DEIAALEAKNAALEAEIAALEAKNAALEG

4H3920-AA = molecular target: T34, 4H3920-AA; experiment: two-hybrid library CCmax; details: mean of both orientations
T34 chain: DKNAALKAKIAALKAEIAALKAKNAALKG

4H3939-AA = molecular target: T35, 4H3939-AA; experiment: two-hybrid library CCmax; details: mean of both orientations
T35 chain: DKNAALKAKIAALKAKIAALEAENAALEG

4H428-AA = molecular target: T36, 4H428-AA; experiment: two-hybrid library CCmax; details: mean of both orientations
T36 chain: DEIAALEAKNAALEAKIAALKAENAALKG

4H478-AA = molecular target: T37, 4H478-AA; experiment: two-hybrid library CCmax; details: mean of both orientations
T37 chain: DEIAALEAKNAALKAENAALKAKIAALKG

4H497-AA = molecular target: T38, 4H497-AA; experiment: two-hybrid library CCmax; details: mean of both orientations
T38 chain: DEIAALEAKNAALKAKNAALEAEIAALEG

4H656-AA = molecular target: T39, 4H656-AA; experiment: two-hybrid library CCmax; details: mean of both orientations
T39 chain: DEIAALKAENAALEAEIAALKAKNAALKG

4H675-AA = molecular target: T40, 4H675-AA; experiment: two-hybrid library CCmax; details: mean of both orientations
T40 chain: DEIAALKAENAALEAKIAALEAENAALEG

4H971-AA = molecular target: T41, 4H971-AA; experiment: two-hybrid library CCmax; details: mean of both orientations
T41 chain: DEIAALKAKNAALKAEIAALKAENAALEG

4H626-bA = molecular target: T42, 4H626-bA; experiment: two-hybrid library CCNG1
T42 chain: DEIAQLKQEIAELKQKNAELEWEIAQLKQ

4H906-bA = molecular target: T43, 4H906-bA; experiment: two-hybrid library CCNG1
T43 chain: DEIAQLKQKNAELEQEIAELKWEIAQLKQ

4H683-bN = molecular target: T44, 4H683-bN; experiment: two-hybrid library CCNG1
T44 chain: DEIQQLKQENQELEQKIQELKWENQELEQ

4H754-bN = molecular target: T45, 4H754-bN; experiment: two-hybrid library CCNG1
T45 chain: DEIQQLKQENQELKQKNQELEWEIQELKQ

4H780-bN = molecular target: T46, 4H780-bN; experiment: two-hybrid library CCNG1
T46 chain: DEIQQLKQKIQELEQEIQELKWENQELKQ

4H797-bN = molecular target: T47, 4H797-bN; experiment: two-hybrid library CCNG1
T47 chain: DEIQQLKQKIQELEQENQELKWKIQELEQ

4H855-bN = molecular target: T48, 4H855-bN; experiment: two-hybrid library CCNG1
T48 chain: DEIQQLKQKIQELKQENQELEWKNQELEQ

4H918-bN = molecular target: T49, 4H918-bN; experiment: two-hybrid library CCNG1
T49 chain: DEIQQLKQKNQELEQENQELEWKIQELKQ

4H953-bN = molecular target: T50, 4H953-bN; experiment: two-hybrid library CCNG1
T50 chain: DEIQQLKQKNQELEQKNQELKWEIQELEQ

4H968-bN = molecular target: T51, 4H968-bN; experiment: two-hybrid library CCNG1
T51 chain: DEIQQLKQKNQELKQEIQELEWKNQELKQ

DKNQELKKKNEELEREIWELEKKIQELKR [4H3974-bH]
interaction score (4H3974-bH): -0.338
interaction score (4H570-bH): -0.965
interaction score (4H584-bH): -0.203
interaction score (4H619-bH): -0.167
interaction score (4H850-bH): -0.0332
interaction score (4H906-bH): -0.332

DEIAALEAEIAALEAKIAALKAENAALEG [4H43-AA]
interaction score (4H43-AA): 1.54
interaction score (4H451-AA): -1.31
interaction score (4H510-AA): -0.823
interaction score (4H_APH): -0.887
interaction score (4H_BCR): -1.44
interaction score (GCN2_T): -1.41
interaction score (O11-AA): -0.943
interaction score (O13-AA): 0.246
interaction score (O14-AA): -0.845

DEIQELKKENEELERKIWELKKENQELER [4H683-bH]
interaction score (4H683-bH): 0.562
interaction score (4H754-bH): -0.187
interaction score (4H780-bH): -0.661
interaction score (4H797-bH): -0.161
interaction score (4H855-bH): -0.174
interaction score (4H918-bH): -1.01
interaction score (4H949-bH): -0.385
interaction score (4H953-bH): -1.23
interaction score (4H968-bH): 1.12

DKIAALKAKNAALKAKNAALKAEIAALKG [4H3066-AA]
interaction score (4H3066-AA): -0.506
interaction score (4H3102-AA): 0.0998
interaction score (4H3121-AA): -0.941
interaction score (4H3417-AA): -2.18
interaction score (4H3446-AA): -1.7
interaction score (4H3591-AA): -1.59
interaction score (4H3628-AA): -1.85
interaction score (4H3666-AA): 0.0105
interaction score (4H3709-AA): -1.94
interaction score (4H391-AA): -1.09
interaction score (4H3920-AA): -1.87
interaction score (4H3939-AA): -2.16
interaction score (4H428-AA): -1.26
interaction score (4H478-AA): 1.25
interaction score (4H497-AA): -0.971
interaction score (4H656-AA): 0.231
interaction score (4H675-AA): -1.19
interaction score (4H971-AA): -1.81

DEIAQLKQEIAELKQKNAELEWEIAQLKQ [4H626-bA]
interaction score (4H626-bA): 0.86
interaction score (4H906-bA): -1.23

DEIQQLKQENQELEQKIQELKWENQELEQ [4H683-bN]
interaction score (4H683-bN): -0.0866
interaction score (4H754-bN): -1.46
interaction score (4H780-bN): -0.606
interaction score (4H797-bN): 0.0127
interaction score (4H855-bN): -0.411
interaction score (4H918-bN): -0.318
interaction score (4H953-bN): -0.218
interaction score (4H968-bN): 1.51
